Experimental data: PMC5799254, “Target identification of small molecules using large-scale CRISPR-Cas mutagenesis scanning of essential genes” (Nature Communications, 2018)

Target: the molecule itself
Assay: crystal structure; co-crystal of NAMPT (10 mg/mL) with a 5-fold excess of KPT-9274; hanging drops, 20 °C, reservoir 0.2 M NaCl, 0.1 M Tris pH 8.5, 22% PEG 3350

B1: nicotinamide phosphoribosyltransferase (NAMPT) (enzyme, human, UniProt P43490 1-491, looked up)
chain: MNPAAEAEFNILLATDSYKVTHYKQYPPNTSKVYSYFECREKKTENSKLRKVKYEETVFYGLQYILNKYLKGKVVTKEKIQEAKDVYKEHFQDDVFNEKGWNYILEKYDGHLPIEIKAVPEGFVIPRGNVLFTVENTDPECYWLTNWIETILVQSWYPITVATNSREQKKILAKYLLETSGNLDGLEYKLHDFGYRGVSSQETAGIGASAHLVNFKGTDTVAGLALIKKYYGTKDPVPGYSVPAAEHSTITAWGKDHEKDAFEHIVTQFSSVPVSVVSDSYDIYNACEKIWGEDLRHLIVSRSTQAPLIIRPDSGNPLDTVLKVLEILGKKFPVTENSKGYKLLPPYLRVIQGDGVDINTLQEIVEGMKQKMWSIENIAFGSGGGLLQKLTRDLLNCSFKCSYVVTNGLGINVFKDPVADPNKRSKKGRLSLHRTPAGNFVTLEEGKGDLEEYGQDLLHTVFKNGKVTKSYSFDEIRKNAQLNIELEAAHH
notes: nicotinamide phosphoribosyltransferase (NAMPT, NMPRTase), human, full length; also called NMPRTase
stoichiometry N: 2
